Measured values from paper PMC6633205, “Cus2 enforces the first ATP-dependent step of splicing by binding to yeast SF3b1 through a UHM–ULM interaction” (RNA, 2019).
Where a chain is given by its changes, count along the chain named. In names and notes the source's numbering stands.

Experiments:
[1] = molecular target: SF3b1 ULM5 (Homo sapiens) (UniProt O75533); settings: cited from earlier work
Tat-SF1 (residues 1-360) [2] = molecular target: T1, Tat-SF1 (residues 1-360) (human, UniProt O43719 1-360); experiment: ITC
T1 chain: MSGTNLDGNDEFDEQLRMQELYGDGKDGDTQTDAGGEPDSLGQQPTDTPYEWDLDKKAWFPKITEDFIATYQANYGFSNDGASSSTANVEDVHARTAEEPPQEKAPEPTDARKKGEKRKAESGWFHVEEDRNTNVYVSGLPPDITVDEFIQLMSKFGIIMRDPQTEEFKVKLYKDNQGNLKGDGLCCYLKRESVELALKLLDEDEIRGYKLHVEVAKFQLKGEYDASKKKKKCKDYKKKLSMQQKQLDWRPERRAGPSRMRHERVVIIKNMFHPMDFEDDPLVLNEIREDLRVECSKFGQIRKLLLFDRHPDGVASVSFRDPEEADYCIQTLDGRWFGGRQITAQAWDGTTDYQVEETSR

[3] = molecular target: T2, Cus2, full length, fused to the GAL4 DNA-binding domain (S. cerevisiae, UniProt P53830 1-285); experiment: cell-based or functional assay
T2 sequence (looked up): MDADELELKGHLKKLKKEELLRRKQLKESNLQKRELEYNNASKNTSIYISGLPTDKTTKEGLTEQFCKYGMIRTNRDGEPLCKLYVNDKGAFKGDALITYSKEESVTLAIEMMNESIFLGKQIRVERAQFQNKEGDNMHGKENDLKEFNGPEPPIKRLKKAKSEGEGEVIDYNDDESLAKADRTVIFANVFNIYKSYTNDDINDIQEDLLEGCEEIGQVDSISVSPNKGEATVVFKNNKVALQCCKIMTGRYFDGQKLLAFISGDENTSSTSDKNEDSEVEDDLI

Tat-SF1 (residues 1-360) [4] = molecular target: T3, Tat-SF1 (residues 1-360) (human, UniProt O43719 1-360); experiment: ITC; apparent; Cus2 or Tat-SF1 proteins titrated with Hsh155 ULM peptide (95-109); 50 mM NaCl, 25 mM HEPES pH 7.4, 0.2 mM TCEP; VP-ITC; three replicates; settings: both partners purified
T3 construct: lacks the divergent acidic C-terminal expansion; Expressed as a GST fusion from a pGEX-6p variant with a TEV cleavage site for the GST tag; also called recombinant Tat-SF1
T3 sequence (looked up): T1 chain

[5] = molecular target: T4, Cus2 UHM (residues 177-269) (S. cerevisiae, UniProt P53830 177-269); experiment: as above; settings: both partners purified
T4 construct: Expressed as a GST fusion from a pGEX-6p variant with a TEV cleavage site for the GST tag; also called isolated Cus2 UHM
T4 sequence (looked up): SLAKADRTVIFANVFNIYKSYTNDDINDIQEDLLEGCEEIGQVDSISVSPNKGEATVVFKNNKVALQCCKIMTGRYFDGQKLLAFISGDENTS

[6] = molecular target: T5, Cus2 D204K with C-terminal His-tag (S. cerevisiae, UniProt P53830 1-285, D204K); experiment: as above; settings: both partners purified
T5 construct: also called D204K mutant Cus2; recombinant Cus2^D204K; source: expressed and purified the same as wild-type Cus2, at the University of California Berkeley QB3 MacroLab
T5 sequence (looked up): T2 sequence (looked up) with D204K

[7] = molecular target: T6, Cus2, full length, with C-terminal His-tag (S. cerevisiae, UniProt P53830 1-285); experiment: as above; settings: both partners purified
T6 construct: also called full-length Cus2; recombinant wild-type Cus2
T6 sequence (looked up): T2 sequence (looked up)

[8] = molecular target: T7, GB1-Cus2, full length, with N-terminal His-tag and GB1 solubility tag (S. cerevisiae, UniProt P53830 1-285); experiment: pull-down; GST-fusion protein or GST (100 µg) immobilised on glutathione agarose, GB1-Cus2 (500 µg in 500 µL) added for 30 min; 100 mM NaCl, 25 mM HEPES pH 7.4, 10% glycerol, 0.1% NP-40; six washes; SDS-PAGE, Coomassie; settings: both partners purified
T7 construct: also called full-length Cus2 protein; not shown: GB1, N-terminal, kept
T7 sequence (looked up): T2 sequence (looked up)

## Tat-SF1 (from UniProt O43719)
[1]
  Kd: 800 nM

B1: SF3b1 ULM (protein)
chain: SQPPSKRKRRWDQTADQTPGATPKKLSSWDQAETPGHTPSLRWDETPGRAKGSETPGATPGSKIWDPTPSHTPAGAATPGRGDTPGHATPGHGGATSSARKNRWDETPKTERDTPGHGSGWAETPRTDRGGDSIGETPTPGASKRKSRWDETPAS
Tat-SF1 (residues 1-360) [2]
  Kd: 1800 nM

B2: ULM5 (peptide)
chain: KRKSRWDETPASQMGGSTP
Tat-SF1 (residues 1-360) [2]
  Kd: 800 nM

B3: Hsh155 R100D, W101A fused to the GAL4 activation domain (natural protein, S. cerevisiae, UniProt P49955 1-971, looked up)
chain: MSHPIQFVNANNSDKSHQLGGQYSIPQDLRENLQKEAARIGENEKDVLQEKMETRTVQNREDSYHKRRFDMKFEPDSDTQTVTSSENTQDAVVPRKRKSDADVKGYEPPDESSTAVKENSDSALVNVEGIHDLMFFKPSDHKYFADVISKKPIDELNKDEKKERTLSMLLLKIKNGNTASRRTSMRILTDKAVTFGPEMIFNRLLPILLDRSLEDQERHLMIKTIDRVLYQLGDLTKPYVHKILVVAAPLLIDEDPMVRSTGQEIITNLSTVAGLKTILTVMRPDIENEDEYVRNVTSRAAAVVAKALGVNQLLPFINAACHSRKSWKARHTGIKIVQQIGILLGIGVLNHLTGLMSCIKDCLMDDHVPVRIVTAHTLSTLAENSYPYGIEVFNVVLEPLWKGIRSHRGKVLSSFLKAVGSMIPLMDPEYAGYYTTEAMRIIRREFDSPDDEMKKTILLVLQKCSAVESITPKFLREEIAPEFFQKFWVRRVALDRPLNKVVTYTTVTLAKKLGCSYTIDKLLTPLRDEAEPFRTMAVHAVTRTVNLLGTADLDERLETRLIDALLIAFQEQTNSDSIIFKGFGAVTVSLDIRMKPFLAPIVSTILNHLKHKTPLVRQHAADLCAILIPVIKNCHEFEMLNKLNIILYESLGEVYPEVLGSIINAMYCITSVMDLDKLQPPINQILPTLTPILRNKHRKVEVNTIKFVGLIGKLAPTYAPPKEWMRICFELLELLKSTNKEIRRSANATFGFIAEAIGPHDVLVALLNNLKVQERQLRVCTAVAIGIVAKVCGPYNVLPVIMNEYTTPETNVQNGVLKAMSFMFEYIGNMSKDYIYFITPLLEDALTDRDLVHRQTASNVITHLALNCSGTGHEDAFIHLMNLLIPNIFETSPHAIMRILEGLEALSQALGPGLFMNYIWAGLFHPAKNVRKAFWRVYNNMYVMYQDAMVPFYPVTPDNNEEYIEELDLVL
[3]
  pre-mRNA coimmunoprecipitated with Lea1-TAP in the absence of ATP (ATP-independent pre-spliceosome formation) in Hsh155^RW-DA extract relative to wild-type extract: ~11 fold

B4: Hsh155 ULM peptide (residues 95-109) (peptide, UniProt P49955 95-109, looked up)
peptide: RKRKSRWDVKGYEPP
notes: source: synthetic peptide, bought: Biomatik Corp. (98% purity)
Tat-SF1 (residues 1-360) [4]
  Kd: 229 nM
  stoichiometry N: ~1
[5]
  Kd: 18 nM
  stoichiometry N: ~1
[6]
  Kd: 1020 nM
  stoichiometry N: ~1
[7]
  Kd: 32 nM
  stoichiometry N: ~1

B5: GST-Hsh155 (86-129) (domain or fragment, S. cerevisiae, UniProt P49955 86-129, looked up)
chain: ENTQDAVVPRKRKSRWDVKGYEPPDESSTAVKENSDSALVNVEG
notes: also called ^GSTHsh155^ULM; Hsh155^ULM
[8]
  binding result: binds
